From IntAct's records for PubMed 18093920

B1: Syndecan-3 (Homo sapiens), O75056 (parent)
chain: MKPGPPHRAGAAHGAGAGAGAAAGPGARGLLLPPLLLLLLAGRAAGAQRWRSENFERPVDLEGSGDDDSFPDDELDDLYSGSGSGYFEQESGIETAMRFSPDVALAVSTTPAVLPTTNIQPVGTPFEELPSERPTLEPATSPLVVTEVPEEPSQRATTVSTTMATTAATSTGDPTVATVPATVATATPSTPAAPPFTATTAVIRTTGVRRLLPLPLTTVATARATTPEAPSPPTTAAVLDTEAPTPRLVSTATSRPRALPRPATTQEPDIPERSTLPLGTTAPGPTEVAQTPTPETFLTTIRDEPEVPVSGGPSGDFELPEEETTQPDTANEVVAVGGAAAKASSPPGTLPKGARPGPGLLDNAIDSGSSAAQLPQKSILERKEVLVAVIVGGVVGALFAAFLVTLLIYRMKKKDEGSYTLEEPKQASVTYQKPDKQEEFYA
B2: Syndecan-2 (Homo sapiens), P34741 (parent)
chain: MRRAWILLTLGLVACVSAESRAELTSDKDMYLDNSSIEEASGVYPIDDDDYASASGSGADEDVESPELTTSRPLPKILLTSAAPKVETTTLNIQNKIPAQTKSPEETDKEKVHLSDSERKMDPAEEDTNVYTEKHSDSLFKRTEVLAAVIAGGVIGFLFAIFLILLLVYRMRKKDEGSYDLGERKPSSAAYQKAPTKEFYA
B3: Syndecan-4 (Homo sapiens), P31431 (parent)
chain: MAPARLFALLLFFVGGVAESIRETEVIDPQDLLEGRYFSGALPDDEDVVGPGQESDDFELSGSGDLDDLEDSMIGPEVVHPLVPLDNHIPERAGSGSQVPTEPKKLEENEVIPKRISPVEESEDVSNKVSMSSTVQGSNIFERTEVLAALIVGGIVGILFAVFLILLLMYRMKKKDEGSYDLGKKPIYKKAPTNEFYA

Variants of: B1
Details: with sdc2_human SDC2, P34741

**Q.** How did the “effect of a mutation on the interaction” value turn out when MKPGPPHRAGAAHGAGAGAGAAAGPGARGLLLPPLLLLLLAGRAAGAQRWRSENFERPVDLEGSGDDDSFPDDELDDLYSGSGSGYFEQESGIETAMRFSPDVALAVSTTPAVLPTTNIQPVGTPFEELPSERPTLEPATSPLVVTEVPEEPSQRATTVSTTMATTAATSTGDPTVATVPATVATATPSTPAAPPFTATTAVIRTTGVRRLLPLPLTTVATARATTPEAPSPPTTAAVLDTEAPTPRLVSTATSRPRALPRPATTQEPDIPERSTLPLGTTAPGPTEVAQTPTPETFLTTIRDEPEVPVSGGPSGDFELPEEETTQPDTANEVVAVGGAAAKASSPPGTLPKGARPGPGLLDNAIDSGSSAAQLPQKSILERKEVLVAVIVLGVVGALFAAFLVTLLIYRMKKKDEGSYTLEEPKQASVTYQKPDKQEEFYA [G392L] was run?
**A.** decreasing interaction

**Q.** How did the “effect of a mutation on the interaction” value turn out when MKPGPPHRAGAAHGAGAGAGAAAGPGARGLLLPPLLLLLLAGRAAGAQRWRSENFERPVDLEGSGDDDSFPDDELDDLYSGSGSGYFEQESGIETAMRFSPDVALAVSTTPAVLPTTNIQPVGTPFEELPSERPTLEPATSPLVVTEVPEEPSQRATTVSTTMATTAATSTGDPTVATVPATVATATPSTPAAPPFTATTAVIRTTGVRRLLPLPLTTVATARATTPEAPSPPTTAAVLDTEAPTPRLVSTATSRPRALPRPATTQEPDIPERSTLPLGTTAPGPTEVAQTPTPETFLTTIRDEPEVPVSGGPSGDFELPEEETTQPDTANEVVAVGGAAAKASSPPGTLPKGARPGPGLLDNAIDSGSSAAQLPQKSILERKEVLVAVIVGGVVLALFAAFLVTLLIYRMKKKDEGSYTLEEPKQASVTYQKPDKQEEFYA [G396L] was run?
**A.** decreasing interaction

Variants of: B2
Details: with sdc3_human SDC3, O75056

**Q.** MRRAWILLTLGLVACVSAESRAELTSDKDMYLDNSSIEEASGVYPIDDDDYASASGSGADEDVESPELTTSRPLPKILLTSAAPKVETTTLNIQNKIPAQTKSPEETDKEKVHLSDSERKMDPAEEDTNVYTEKHSDSLFKRTEVLAAVIAGGVILFLFAIFLILLLVYRMRKKDEGSYDLGERKPSSAAYQKAPTKEFYA [G156L] was tested. Which “effect of a mutation on the interaction” value did it give?
**A.** decreasing interaction

**Q.** MRRAWILLTLGLVACVSAESRAELTSDKDMYLDNSSIEEASGVYPIDDDDYASASGSGADEDVESPELTTSRPLPKILLTSAAPKVETTTLNIQNKIPAQTKSPEETDKEKVHLSDSERKMDPAEEDTNVYTEKHSDSLFKRTEVLAAVIALGVIGFLFAIFLILLLVYRMRKKDEGSYDLGERKPSSAAYQKAPTKEFYA [G152L] was tested. Which “effect of a mutation on the interaction” value did it give?
**A.** decreasing interaction

Variants of: B3
Details: with sdc2_human SDC2, P34741

**Q.** Which “effect of a mutation on the interaction” value does the source give for MAPARLFALLLFFVGGVAESIRETEVIDPQDLLEGRYFSGALPDDEDVVGPGQESDDFELSGSGDLDDLEDSMIGPEVVHPLVPLDNHIPERAGSGSQVPTEPKKLEENEVIPKRISPVEESEDVSNKVSMSSTVQGSNIFERTEVLAALIVGGIVLILFAVFLILLLMYRMKKKDEGSYDLGKKPIYKKAPTNEFYA [G157L] here?
**A.** decreasing interaction

**Q.** With MAPARLFALLLFFVGGVAESIRETEVIDPQDLLEGRYFSGALPDDEDVVGPGQESDDFELSGSGDLDDLEDSMIGPEVVHPLVPLDNHIPERAGSGSQVPTEPKKLEENEVIPKRISPVEESEDVSNKVSMSSTVQGSNIFERTEVLAALIVLGIVGILFAVFLILLLMYRMKKKDEGSYDLGKKPIYKKAPTNEFYA [G153L] as the variant, how does the “effect of a mutation on the interaction” value read?
**A.** decreasing interaction

Variants of: B3
Details: with sdc3_human SDC3, O75056

**Q.** MAPARLFALLLFFVGGVAESIRETEVIDPQDLLEGRYFSGALPDDEDVVGPGQESDDFELSGSGDLDDLEDSMIGPEVVHPLVPLDNHIPERAGSGSQVPTEPKKLEENEVIPKRISPVEESEDVSNKVSMSSTVQGSNIFERTEVLAALIVGGIVLILFAVFLILLLMYRMKKKDEGSYDLGKKPIYKKAPTNEFYA [G157L] was tested. Which “effect of a mutation on the interaction” value did it give?
**A.** decreasing interaction

**Q.** For MAPARLFALLLFFVGGVAESIRETEVIDPQDLLEGRYFSGALPDDEDVVGPGQESDDFELSGSGDLDDLEDSMIGPEVVHPLVPLDNHIPERAGSGSQVPTEPKKLEENEVIPKRISPVEESEDVSNKVSMSSTVQGSNIFERTEVLAALIVLGIVGILFAVFLILLLMYRMKKKDEGSYDLGKKPIYKKAPTNEFYA [G153L], which “effect of a mutation on the interaction” value is on record?
**A.** decreasing interaction
